Test [1] deals with T1, recombinant human soluble gpNMB (human gpNMB-FLAG-His) (human, UniProt Q14956 23-498).
T1 construct: FLAG and His tags; also called recombinant human gpNMB-FLAG-His
T1 sequence: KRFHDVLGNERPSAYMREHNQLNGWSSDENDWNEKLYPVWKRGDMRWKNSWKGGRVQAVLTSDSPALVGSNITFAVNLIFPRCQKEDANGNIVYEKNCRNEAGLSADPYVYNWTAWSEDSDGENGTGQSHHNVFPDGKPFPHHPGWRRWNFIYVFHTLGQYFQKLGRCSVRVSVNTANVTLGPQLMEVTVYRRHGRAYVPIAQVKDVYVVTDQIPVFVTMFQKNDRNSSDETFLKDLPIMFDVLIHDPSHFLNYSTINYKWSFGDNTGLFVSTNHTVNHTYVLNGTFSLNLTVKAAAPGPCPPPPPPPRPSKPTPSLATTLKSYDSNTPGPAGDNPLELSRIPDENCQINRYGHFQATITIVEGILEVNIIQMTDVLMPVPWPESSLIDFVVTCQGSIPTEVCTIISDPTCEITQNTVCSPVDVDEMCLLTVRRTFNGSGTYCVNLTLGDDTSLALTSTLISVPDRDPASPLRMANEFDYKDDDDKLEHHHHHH
The test can be described thus: SPR single-cycle kinetics, gpNMB-FLAG-His captured, 1:1 model.

Test [2] deals with T2, recombinant mouse soluble gpNMB (mouse gpNMB-FLAG-His) (mouse, UniProt Q99P91 23-502).
T2 construct: FLAG and His tags; also called recombinant mouse gpNMB-FLAG-His
T2 sequence: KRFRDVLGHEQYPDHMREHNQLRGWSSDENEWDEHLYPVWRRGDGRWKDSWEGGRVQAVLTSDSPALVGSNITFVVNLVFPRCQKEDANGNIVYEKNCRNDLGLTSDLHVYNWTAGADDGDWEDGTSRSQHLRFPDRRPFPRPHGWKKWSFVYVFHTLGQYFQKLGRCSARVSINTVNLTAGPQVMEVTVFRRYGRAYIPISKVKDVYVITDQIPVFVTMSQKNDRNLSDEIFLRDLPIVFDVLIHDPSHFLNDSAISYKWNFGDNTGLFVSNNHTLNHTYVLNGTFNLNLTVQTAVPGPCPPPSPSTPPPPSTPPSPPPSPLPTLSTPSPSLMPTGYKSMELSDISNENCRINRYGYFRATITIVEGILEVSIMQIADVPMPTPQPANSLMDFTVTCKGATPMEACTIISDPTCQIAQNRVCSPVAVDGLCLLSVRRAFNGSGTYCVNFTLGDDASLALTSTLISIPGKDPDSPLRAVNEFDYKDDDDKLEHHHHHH
The test is described as above.

For 2 molecules, Kd, koff and kon results are on record in patent EP4772536A1 (Teijin Pharma Limited, dated 2026).

B1: GPN06-1 (antibody, V domains shown)
VH: QVQLQQPGAEIVRPGASVKLSCKASGYTFTDNWMGWVKQRPGQGLEWIGAIDPSDSFTNYNQNFKGKATLTVDTSSSTAYMQLSSLTSEDSAVYFCTRSGYYGSPKLGGDYWGQGTTLTVSS
VL: QIVLTQSPAIMSASLGEEITLTCSASSSISYMHWYQQKSGTSPKLLIYSTSNLASGVPSRFSGSGSGTFYSLTISSVEAEDAADYYCHQWNSYPCTFGGGTKLEIK
notes: anti-gpNMB monoclonal antibody
The Kd is the equilibrium constant for the complex coming apart. The koff is a measure of how fast the partners let go of each other. In general, kon refers to the second-order rate constant of association. For the molecule B1, in test [1], the Kd amounted to 0.488 nM, the koff stood at 0.000253 s⁻¹ and the on-rate (kon) turned out to be 519000 M⁻¹ s⁻¹. Moreover, in test [2], the Kd came out at 5.05 nM, the off-rate constant (koff) amounted to 0.000879 s⁻¹ and the kon was 174000 M⁻¹ s⁻¹.

B2: GPN05-1 (antibody, V domains shown)
VH: QVQLQQSGAELVRPGTSVKVSCKASGYAFSNHLIEWVKQRPGQGLEWIGVINPGSGGTNYIEKFKGKATLTADKSSSTAYMQLSSLTSDDSAVYFCARGANWDVGFAYWGQGTLVTVSA
VL: EIQMTQSPSSMSASLGDRITITCQATQDIVKNLNWYQQKPGKPPSFLIYYATELAEGVPSRFSGSGSGSDFSLTISNLESEDFADYYCLQFHEFPRTFGGGTKLEIK
notes: as for B1
Consider B2, for which, in test [1], the dissociation constant Kd was 0.366 nM, the koff worked out at 3.55e-05 s⁻¹ and the kon is 96900 M⁻¹ s⁻¹. Further, in test [2], the Kd stood at 8.5 nM, the koff was 0.000307 s⁻¹ and the association rate constant (kon) stood at 36100 M⁻¹ s⁻¹.
